{
  "source": "paper PMC8472264",
  "molecular_target": "ArtB (untagged receptor-binding subunit of S. Typhimurium DT104 ArtAB) (Salmonella enterica Typhimurium DT104)",
  "assay": "SDS-PAGE of unboiled samples",
  "data": [
    {"substance": "ArtB (untagged receptor-binding subunit of S. Typhimurium DT104 ArtAB) (natural protein)", "values": [
      {"measurement": "stoichiometry N", "value": 5}
    ]}
  ]
}
